Consider one molecule from US20150038427A1.

This test concerns the target collagen. Nature of the test: SPR (Biacore 2000), collagen immobilised on CM-3 chip, peptide as analyte, from on-off binding kinetics. For orientation: SPR reads the build-up and loss of mass on a sensor chip optically.

B1: peptide … (SILY) (peptide)
peptide: RRANAALKAGELYKSILYGC
For orientation: Kd means the equilibrium constant for the complex coming apart. A lower Kd goes with tighter binding. As for B1, the Kd came to 1200 nM.
